Assays:
[1] = biological target: T1, MISRII (AMHRII), immobilised on CM5 sensor chip (UniProt Q16671 18-144, limits assumed); assay: SPR, MISRII immobilised on CM5 chip, IgG injected, Langmuir 1:1 fit (affinity and avidity)
T1 construct: also called MSRII; immobilized receptor
T1 sequence (looked up): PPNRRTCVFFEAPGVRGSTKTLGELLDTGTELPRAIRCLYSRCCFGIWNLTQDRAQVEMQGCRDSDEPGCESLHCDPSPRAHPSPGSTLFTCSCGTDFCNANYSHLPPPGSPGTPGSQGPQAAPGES
Method: (§1) SPR analyses were performed on a Bia3000 or T200 apparatus at 25° C. in HBS-EP (GE Healthcare). For affinity measurements, MISRII was covalently immobilized (1000 RU) on CM5 sensor chip using EDC/NHS activation according to the manufacturer's instructions (GE Healthcare). Different concentrations (0.5-128 nM) of 12G4 or 3C23K were injected on immobilized receptor during 180 seconds. After 400 seconds of dissociation in running buffer, the sensor chip was regenerated using Gly-HCl pH 1.7. The KD values, taking into account affinity and avidity, were calculated using a Langmuir 1:1 fitting model (BiaEvaluation3.2, GE Healthcare). Antibody-FcγR measurements were performed by single-cycle titration at 100 μl/min on FcγR (Sigma) captured on anti-His (R&D Systems) covalently immobilized at 4000-5000 RU level. The gamma receptor was injected at 20 nM during 60 seconds and five increasing antibody concentrations were injected (injection time=60 seconds). […] Kinetic parameters were evaluated from the sensorgrams using a heterogeneous Ligand or steady-state fitting models on the T200 evaluation software 3.0 (GE healthcare). […]
To better define the binding characteristics, clone 3C23K was reformatted as an IgG1 antibody, produced in YB2/0 cells and analyzed by surface plasmon resonance (SPR). […]

[2] = biological target: T2, human Fcγ RIIIa/CD16a (human, UniProt P08637 17-208); assay: SPR (Biacore); description's upper bound for hypofucosylated 3C23K (YB2/0)
T2 construct: Captured through anti-His antibody, so a His tag is implied but not described; also called hFcγRIIIa

[3] = biological target: T3, human Fcγ RIIIb/hCD16b (human, UniProt O75015 17-200); assay: SPR, single-cycle titration, FcγR captured on anti-His; 3C23K from YB2/0, low fucose (33.0% fucosylated)
T3 construct: Captured through anti-His antibody, so a His tag is implied but not described; also called hFcγRIIIb
Method: as §1
(§2) The percentages of fucosylated, galactosylated and bisecting GlcNAc isoforms were 33.0%, 57.2% and 1.8% for 3C23K and 94.6%, 54.4% and 2.0%, for 3C23K-CHO, respectively. The effect of these glycosylation differences on the binding to FcγRs was analyzed by SPR.

[4] = biological target: T4, human Fcγ RI/CD64 (human, UniProt P12314 16-288); assay: SPR T200, single-cycle titration, receptor captured on anti-His; two state reaction model
T4 construct: Captured through anti-His antibody, so a His tag is implied but not described; also called hFcγRI
Method: (§3) Anti-histidine antibodies (R&D Systems) were immobilized on a T200 apparatus at 25° C. in HBS-EP at 10 μl/min flow rate on a CM5 sensor chip using EDC/NHS activation, according to the manufacturer's instructions (GE Healthcare). They were covalently immobilized at the 6900RU level on the flowcell Fc2 and a control reference surface (flowcell Fc1) was prepared using the same chemical treatment but without anti-His antibodies.
(§4) All kinetic measurements in Fc1 and Fc2 were performed by single-cycle titration on a T200 apparatus at 25° C. in HBS-EP at 100 μl/min. Each human gamma receptor (R&D Systems) was captured on immobilized anti-His antibodies at 20 nM during 60 s. Five increasing concentrations of antibody were injected (injection time=120 s). After a dissociation step of 600 s in running buffer, sensor surfaces were regenerated using 5 μl of glycine-HCl pH1.7. All the sensorgrams were corrected by subtracting the low signal from the control reference surface and buffer blank injections. Kinetic parameters were evaluated from the sensorgrams using a heterogeneous ligand or two states models from the T200 evaluation software.
(§5) The results of the measure of the affinity constants (Kd) of the hypo-fucosylated anti-AMHRII 3C23K antibody for the human Fc receptors are depicted in Table 4 below.

[5] = biological target: T3, human Fcγ RIIIb/hCD16b; assay: SPR T200, single-cycle titration, receptor captured on anti-His; heterogeneous ligand model (footnote *)
Method: as §3, §4, §5

[6] = biological target: T5, human Fcγ RII/CD32a (human, UniProt P12318 36-218); assay: as above
T5 construct: Captured through anti-His antibody, so a His tag is implied but not described; also called hFcγRIIa
T5 sequence (looked up): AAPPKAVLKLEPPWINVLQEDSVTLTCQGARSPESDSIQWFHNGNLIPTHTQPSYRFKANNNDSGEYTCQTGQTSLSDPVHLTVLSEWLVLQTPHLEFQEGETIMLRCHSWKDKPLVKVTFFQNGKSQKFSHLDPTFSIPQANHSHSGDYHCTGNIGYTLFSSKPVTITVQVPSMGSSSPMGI
Method: as §3, §4, §5

[7] = biological target: T2, human Fcγ RIIIa/CD16a; assay: SPR, single-cycle titration, FcγR captured on anti-His; 3C23K from YB2/0, low fucose (33.0% fucosylated); lower end of the range 1-12 nM
Method: as §1, §2

[8] = biological target: T2, human Fcγ RIIIa/CD16a; assay: SPR, single-cycle titration, FcγR captured on anti-His; 3C23K from YB2/0, low fucose (33.0% fucosylated); upper end of the range 1-12 nM
Method: as §1, §2

[9] = biological target: T6, human Fcγ RIIbc/CD32bc (human, UniProt P31994 46-217); assay: SPR, FcγR captured on anti-His
T6 construct: treated here as one molecule; also called hFcγRIIb
T6 sequence (looked up): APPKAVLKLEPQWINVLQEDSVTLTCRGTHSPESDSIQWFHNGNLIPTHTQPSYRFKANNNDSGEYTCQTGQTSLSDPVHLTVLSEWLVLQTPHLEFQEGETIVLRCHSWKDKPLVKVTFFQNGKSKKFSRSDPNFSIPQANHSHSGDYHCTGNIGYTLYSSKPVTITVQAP
Method: as §1, §2

[10] = biological target: T4, human Fcγ RI/CD64; assay: SPR, FcγR captured on anti-His
Method: as §1, §2

[11] = biological target: T3, human Fcγ RIIIb/hCD16b; assay: SPR, single-cycle titration, FcγR captured on anti-His; 3C23K-HEK293, expressed in HEK293 (comparator, not fucose-reduced)
Method: as §1, §2

[12] = biological target: T2, human Fcγ RIIIa/CD16a; assay: SPR, single-cycle titration, FcγR captured on anti-His; 3C23K-HEK293, expressed in HEK293 (comparator, not fucose-reduced); lower end of the range 31-164 nM
Method: as §1, §2

[13] = biological target: T2, human Fcγ RIIIa/CD16a; assay: SPR, single-cycle titration, FcγR captured on anti-His; 3C23K-HEK293, expressed in HEK293 (comparator, not fucose-reduced); upper end of the range 31-164 nM
Method: as §1, §2

T2 sequence (P08637 17-208 limits assumed): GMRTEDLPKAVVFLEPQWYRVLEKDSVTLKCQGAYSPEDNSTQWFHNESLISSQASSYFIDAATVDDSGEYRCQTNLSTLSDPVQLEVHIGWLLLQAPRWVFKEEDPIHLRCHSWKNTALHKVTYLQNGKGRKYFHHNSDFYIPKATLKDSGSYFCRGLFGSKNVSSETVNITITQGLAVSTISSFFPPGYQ
T3 sequence (O75015 17-200 limits assumed): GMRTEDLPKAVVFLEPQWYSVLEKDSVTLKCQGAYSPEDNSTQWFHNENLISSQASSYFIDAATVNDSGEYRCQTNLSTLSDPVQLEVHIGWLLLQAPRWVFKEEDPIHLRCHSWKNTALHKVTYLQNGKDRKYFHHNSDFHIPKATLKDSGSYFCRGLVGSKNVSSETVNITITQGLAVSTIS
T4 sequence (P12314 16-288 limits assumed): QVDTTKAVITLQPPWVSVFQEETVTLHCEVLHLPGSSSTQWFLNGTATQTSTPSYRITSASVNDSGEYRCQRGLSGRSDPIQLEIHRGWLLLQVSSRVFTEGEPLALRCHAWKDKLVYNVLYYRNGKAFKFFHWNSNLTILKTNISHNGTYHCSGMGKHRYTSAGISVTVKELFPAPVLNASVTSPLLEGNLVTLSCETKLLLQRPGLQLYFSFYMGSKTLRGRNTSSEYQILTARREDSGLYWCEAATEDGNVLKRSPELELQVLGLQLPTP

Binder | Kd [1] [nM] | Kd [2] [nM] | Kd [3] [nM] | Kd [4] [nM] | Kd [5] [nM] | Kd [6] [nM] | Kd [7] [nM] | Kd [8] [nM] | binding result [9] | binding result [10] | Kd [11] [nM] | Kd [12] [nM] | Kd [13] [nM]
murine anti-MISRII monoclonal antibody 12G4 (antibody, V domains shown) VH: QVQLQQSGPELVKPGASVRMSCKASGYTFTSYHIHWVKQRPGQGLEWIGWIYPGDDSTKYNEKFKGKTTLTADKSSSTAYMLLSSLTSEDSAIYFCTRGDRFAYWGQGTLVTVSA VL: QIVLTQSPAIMSASLGEGITLTCSASSSVRYIHWYQQKSGTSPKLLIYSTSNLASGVPSRFSGSGSGTFHSLTISSVEAEDAADYYCLQWSSYPWTFGGGTKLEIK | 0.79 | – | – | – | – | – | – | – | – | – | – | – | –
3C23K humanised anti-AMHRII monoclonal antibody produced in YB2/0 cells (hypofucosylated, EMABling version) (antibody, human IgG1, kappa, N-glycan at ASN295 of the heavy chain, hypofucosylated (33.0% fucosylated isoforms for 3C23K from YB2/0), also called GM102; R18H2) heavy: not shown light: DIQMTQSPSTLSASVGDRVTITCRASSSVRYIAWYQQKPGKAPKLLTYPTSSLKSGVPSRFSGSGSGTEFTLTISSLQPDDFATYYCLQWSSYPWTFGGGTKVEIKRTVAAPSVFIFPPSDEQLKSGTASVVCLLNNFYPREAKVQWKVDNALQSGNSQESVTEQDSKDSTYSLSSTLTLSKADYEKHKVYACEVTHQGLSSPVTKSFNRGEC | 0.055 | < 50 | 86 | 0.2 to 3.3 | 49 | 120 | ≥ 1 | ≤ 12 | – | – | – | – | –
3C23K antibody expressed in HEK293 cells (antibody, human IgG1, kappa, It differs from m1 only in glycosylation; also called 3C23K-HEK293) heavy: not shown light: DIQMTQSPSTLSASVGDRVTITCRASSSVRYIAWYQQKPGKAPKLLTYPTSSLKSGVPSRFSGSGSGTEFTLTISSLQPDDFATYYCLQWSSYPWTFGGGTKVEIKRTVAAPSVFIFPPSDEQLKSGTASVVCLLNNFYPREAKVQWKVDNALQSGNSQESVTEQDSKDSTYSLSSTLTLSKADYEKHKVYACEVTHQGLSSPVTKSFNRGEC | – | – | – | – | – | – | – | – | binds | binds | 378 | ≥ 31 | ≤ 164
